{"source": "patent US20200199554A1", "about": "(KATHOLIEKE UNIVERSITEIT LEUVEN, published 2020)", "proteins": {"B1": {"name": "LUZ19_Gp5 (untagged, purified) (enzyme)", "chain": "MSSRDPYRIGHRVGLVNYSDRYLGADAAGTKGTIEAITRPSRCMTIYHVRCERTLRLIEAEARNVRFIRQRAER", "notes": "A few linker residues may remain at the N-terminus; also called Phage LUZ19 gp5; miniDNase"}}, "target": "the molecule itself", "assay": "zymogram (SDS-PAGE gel with embedded fish sperm DNA, renatured); self-association, dimer band", "description": "In addition, the nuclease activity was confirmed by zymography. […] Then, the gel was washed three times for 5 min in mQ and incubated for 48 h in zymogram renaturation buffer (150 mM NaH₂PO₄ pH 7, 10 mM MgCl₂ and 0.1% Triton X-100), which allowed the proteins to refold to their native state. Finally, the gel was stained for 20 min in 0.5 μg/ml ethidium bromide and destained for 20 min in the zymogram renaturation buffer. After staining with ethidium bromide, the enzymes with nuclease activity were visible as non-fluorescent bands using an UV transilluminator. The impact of boiling on the renaturing capacity of Gp5 was tested by loading both preboiled (10 min, 95° C.) and non-preboiled samples. Clear bands were observed around 8-9 kDa, indicating the nuclease activity of Gp5 (MW=8.5 KDa) (for details see FIG. 4). […] Despite the small fraction of Gp5 that is present as a dimer on the zymogram, this dimer:monomer ratio is not necessarily present in vivo. After all, SDS is an anionic surfactant, negatively charging proteins to allow a separation based on the molecular weight in SDS-PAGE. This step generally involves also the disintegration of dimers into monomers. The removal of SDS in the renaturation step, might allow Gp5 to reassociate into dimers.\nClear bands were observed around 8-9 kDa in all samples, indicating the presence of Gp5. […] The protein concentrations are shown on the top.", "data": [{"protein": "B1", "values": [{"measurement": "binding result", "result": "binds"}]}]}
